Tests used:
HeLa Kyoto [1] = test: solubility in G1/S (NP-40 vs SDS abundance) (log2 ratio); higher = more soluble; details: cell cycle stage: G1/S
HeLa Kyoto [2] = test: melting temperature (median over replicates), in situ; higher = more thermally stable
HeLa Kyoto [3] = test: solubility change mitosis vs G1/S (difference of NP-40 vs SDS log2 ratios) (log2 ratio difference); higher = more soluble in mitosis
HeLa Kyoto [4] = test: thermal stability score vs G1/S (z-score of summed log2 fold changes over temperatures); higher = more thermally stable than in G1/S
[5] = cell cycle stage: early G1 (4.5 h after nocodazole release)
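For melting temperature (median over replicates), in situ in this document: HeLa Kyoto cells synchronized by double thymidine or nocodazole block, proteins quantified by TMT10plex mass spectrometry, three independent biological replicates.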
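For solubility change mitosis vs G1/S (difference of NP-40 vs SDS log2 ratios) in this document: synchronized HeLa Kyoto cells (double thymidine block for G1/S, nocodazole release for mitosis), protein amounts in NP-40 versus SDS lysates quantified by mass spectrometry, three biological replicates.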
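For solubility in G1/S (NP-40 vs SDS abundance) in this document: HeLa Kyoto cells arrested at G1/S by double thymidine block, proteins quantified by TMT10plex mass spectrometry in mild NP-40 versus SDS extracts, three biological replicates.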
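For thermal stability score vs G1/S (z-score of summed log2 fold changes over temperatures) in this document: synchronized HeLa Kyoto cells, proteins quantified by TMT10plex mass spectrometry, three biological replicates, mitosis taken 0.5 h after nocodazole release, G1/S directly after double thymidine block.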

Substance | solubility in G1/S (log2) (HeLa Kyoto [1]) | melting temperature (HeLa Kyoto [2]; cell cycle stage: G1/S) | melting temperature (HeLa Kyoto [2]; cell cycle stage: mitosis) | solubility change mitosis (log2) (HeLa Kyoto [3]) | thermal stability score (HeLa Kyoto [4]; [5]) | thermal stability score (HeLa Kyoto [4]; cell cycle stage: mitosis)
MAMAYLAWRLARRSCPSSLQVTSFPVVQLHMNRTAMRASQKDFENSMNQVKLLKKDPGNEVKLKLYALYKQATEGPCNMPKPGVFDLINKAKWDAWNALGSLPKEAARQNYVDLVSSLSPSLESSSQVEPGTDRKSTGFETLVVTSEDGITKIMFNRPKKKNAINTEMYHEIMRALKAASKDDSIITVLTGNGDYYSSGNDLTNFTDIPPGGVEEKAKNNAVLLREFVGCFIDFPKPLIAVVNGPAVGISVTLLGLFDAVYASDRATFHTPFSHLGQSPEGCSSYTFPKIMSPAKATEMLIFGKKLTAGEACAQGLVTEVFPDSTFQKEVWTRLKAFAKLPPNALRISKEVIRKREREKLHAVNAEECNVLQGRWLSDECTNAVVNFLSRKSKL [ECI2] | 0.369 | 53.6 °C | 53.2 °C | -0.0636 | -0.204 | 0.871
MDPFTEKLLERTRARRENLQRKMAERPTAAPRSMTHAKRARQPLSEASNQQPLSGGEEKSCTKPSPSKKRCSDNTEVEVSNLENKQPVESTSAKSCSPSPVSPQVQPQAADTISDSVAVPASLLGMRRGLNSRLEATAASSVKTRMQKLAEQRRRWDNDDMTDDIPESSLFSPMPSEEKAASPPRPLLSNASATPVGRRGRLANLAATICSWEDDVNHSFAKQNSVQEQPGTACLSKFSSASGASARINSSSVKQEATFCSQRDGDASLNKALSSSADDASLVNASISSSVKATSPVKSTTSITDAKSCEGQNPELLPKTPISPLKTGVSKPIVKSTLSQTVPSKGELSREICLQSQSKDKSTTPGGTGIKPFLERFGERCQEHSKESPARSTPHRTPIITPNTKAIQERLFKQDTSSSTTHLAQQLKQERQKELACLRGRFDKGNIWSAEKGGNSKSKQLETKQETHCQSTPLKKHQGVSKTQSLPVTEKVTENQIPAKNSSTEPKGFTECEMTKSSPLKITLFLEEDKSLKVTSDPKVEQKIEVIREIEMSVDDDDINSSKVINDLFSDVLEEGELDMEKSQEEMDQALAESSEEQEDALNISSMSLLAPLAQTVGVVSPESLVSTPRLELKDTSRSDESPKPGKFQRTRVPRAESGDSLGSEDRDLLYSIDAYRSQRFKETERPSIKQVIVRKEDVTSKLDEKNNAFPCQVNIKQKMQELNNEINMQQTVIYQASQALNCCVDEEHGKGSLEEAEAERLLLIATGKRTLLIDELNKLKNEGPQRKNKASPQSEFMPSKGSVTLSEIRLPLKADFVCSTVQKPDAANYYYLIILKAGAENMVATPLASTSNSLNGDALTFTTTFTLQDVSNDFEINIEVYSLVQKKDPSGLDKKKKTSKSKAITPKRLLTSITTKSNIHSSVMASPGGLSAVRTSNFALVGSYTLSLSSVGNTKFVLDKVPFLSSLEGHIYLKIKCQVNSSVEERGFLTIFEDVSGFGAWHRRWCVLSGNCISYWTYPDDEKRKNPIGRINLANCTSRQIEPANREFCARRNTFELITVRPQREDDRETLVSQCRDTLCVTKNWLSADTKEERDLWMQKLNQVLVDIRLWQPDACYKPIGKP [ANLN] | -0.029 | 47 °C | 49.6 °C | 0.0107 | 5.84 | 9.22
MFTLAEVASLNDIQPTYRILKPWWDVFMDYLAVVMLMVAIFAGTMQLTKDQVVCLPVLPSPVNSKAHTPPGNAEVTTNIPKMEAATNQDQDGRTTNDISFGTSAVTPDIPLRATYPRTDFALPNQEAKKEKKDPTGRKTNLDFQQYVFINQMCYHLALPWYSKYFPYLALIHTIILMVSSNFWFKYPKTCSKVEHFVSILGKCFESPWTTKALSETACEDSEENKQRITGAQTLPKHVSTSSDEGSPSASTPMINKTGFKFSAEKPVIEVPSMTILDKKDGEQAKALFEKVRKFRAHVEDSDLIYKLYVVQTVIKTAKFIFILCYTANFVNAISFEHVCKPKVEHLIGYEVFECTHNMAYMLKKLLISYISIICVYGFICLYTLFWLFRIPLKEYSFEKVREESSFSDIPDVKNDFAFLLHMVDQYDQLYSKRFGVFLSEVSENKLREISLNHEWTFEKLRQHISRNAQDKQELHLFMLSGVPDAVFDLTDLDVLKLELIPEAKIPAKISQMTNLQELHLCHCPAKVEQTAFSFLRDHLRCLHVKFTDVAEIPAWVYLLKNLRELYLIGNLNSENNKMIGLESLRELRHLKILHVKSNLTKVPSNITDVAPHLTKLVIHNDGTKLLVLNSLKKMMNVAELELQNCELERIPHAIFSLSNLQELDLKSNNIRTIEEIISFQHLKRLTCLKLWHNKIVTIPPSITHVKNLESLYFSNNKLESLPVAVFSLQKLRCLDVSYNNISMIPIEIGLLQNLQHLHITGNKVDILPKQLFKCIKLRTLNLGQNCITSLPEKVGQLSQLTQLELKGNCLDRLPAQLGQCRMLKKSGLVVEDHLFDTLPLEVKEALNQDINIPFANGI [LRRC8D] | 0.141 | 53.7 °C | 53 °C | -0.126 | 0.491 | 0.22
MDRVTRYPILGIPQAHRGTGLVLDGDTSYTYHLVCMGPEASGWGQDEPQTWPTDHRAQQGVQRQGVSYSVHAYTGQPSPRGLHSENREDEGWQVYRLGARDAHQGRPTWALRPEDGEDKEMKTYRLDAGDADPRRLCDLERERWAVIQGQAVRKSSTVATLQGTPDHGDPRTPGPPRSTPLEENVVDREQIDFLAARQQFLSLEQANKGAPHSSPARGTPAGTTPGASQAPKAFNKPHLANGHVVPIKPQVKGVVREENKVRAVPTWASVQVVDDPGSLASVESPGTPKETPIEREIRLAQEREADLREQRGLRQATDHQELVEIPTRPLLTKLSLITAPRRERGRPSLYVQRDIVQETQREEDHRREGLHVGRASTPDWVSEGPQPGLRRALSSDSILSPAPDARAADPAPEVRKVNRIPPDAYQPYLSPGTPQLEFSAFGAFGKPSSLSTAEAKAATSPKATMSPRHLSESSGKPLSTKQEASKPPRGCPQANRGVVRWEYFRLRPLRFRAPDEPQQAQVPHVWGWEVAGAPALRLQKSQSSDLLERERESVLRREQEVAEERRNALFPEVFSPTPDENSDQNSRSSSQASGITGSYSVSESPFFSPIHLHSNVAWTVEDPVDSAPPGQRKKEQWYAGINPSDGINSEVLEAIRVTRHKNAMAERWESRIYASEEDD [MISP] | -2.09 | – | 51.9 °C | 1.38 | -1.21 | -1.86
MTAVHAGNINFKWDPKSLEIRTLAVERLLEPLVTQVTTLVNTNSKGPSNKKRGRSKKAHVLAASVEQATENFLEKGDKIAKESQFLKEELVAAVEDVRKQGDLMKAAAGEFADDPCSSVKRGNMVRAARALLSAVTRLLILADMADVYKLLVQLKVVEDGILKLRNAGNEQDLGIQYKALKPEVDKLNIMAAKRQQELKDVGHRDQMAAARGILQKNVPILYTASQACLQHPDVAAYKANRDLIYKQLQQAVTGISNAAQATASDDASQHQGGGGGELAYALNNFDKQIIVDPLSFSEERFRPSLEERLESIISGAALMADSSCTRDDRRERIVAECNAVRQALQDLLSEYMGNAGRKERSDALNSAIDKMTKKTRDLRRQLRKAVMDHVSDSFLETNVPLLVLIEAAKNGNEKEVKEYAQVFREHANKLIEVANLACSISNNEEGVKLVRMSASQLEALCPQVINAALALAAKPQSKLAQENMDLFKEQWEKQVRVLTDAVDDITSIDDFLAVSENHILEDVNKCVIALQEKDVDGLDRTAGAIRGRAARVIHVVTSEMDNYEPGVYTEKVLEATKLLSNTVMPRFTEQVEAAVEALSSDPAQPMDENEFIDASRLVYDGIRDIRKAVLMIRTPEELDDSDFETEDFDVRSRTSVQTEDDQLIAGQSARAIMAQLPQEQKAKIAEQVASFQEEKSKLDAEVSKWDDSGNDIIVLAKQMCMIMMEMTDFTRGKGPLKNTSDVISAAKKIAEAGSRMDKLGRTIADHCPDSACKQDLLAYLQRIALYCHQLNICSKVKAEVQNLGGELVVSGVDSAMSLIQAAKNLMNAVVQTVKASYVASTKYQKSQGMASLNLPAVSWKMKAPEKKPLVKREKQDETQTKIKRASQKKHVNPVQALSEFKAMDSI [CTNNA1] | 0.402 | 52.6 °C | 52.2 °C | -0.0404 | -0.182 | -0.645
MRWGLRPRGPGAAALATARSLWGTPRLPCSPGWQGATKRLLVRSVSGASNHQPNSNSGRYRDTVLLPQTSFPMKLLGRQQPDTELEIQQKCGFSELYSWQRERKVKTEFCLHDGPPYANGDPHVGHALNKILKDIANRFHMMNGSKIHFVPGWDCHGLPIEIKVLSELGREAQNLSAMEIRKKARSFAKAAIEKQKSAFIRWGIMADWNNCYYTFDGKYEAKQLRTFYQMYDKGLVYRSYKPVFWSPSSRTALAEAELEYNPEHVSRSIYVKFPLLKPSPKLASLIDGSSPVSILVWTTQPWTIPANEAVCYMPESKYAVVKCSKSGDLYVLAADKVASVASTLETTFETISTLSGVDLENGTCSHPLIPDKASPLLPANHVTMAKGTGLVHTAPAHGMEDYGVASQHNLPMDCLVDEDGVFTDVAGPELQNKAVLEEGTDVVIKMLQTAKNLLKEEKLVHSYPYDWRTKKPVVIRASKQWFINITDIKTAAKELLKKVKFIPGSALNGMVEMMDRRPYWCISRQRVWGVPIPVFHHKTKDEYLINSQTTEHIVKLVEQHGSDIWWTLPPEQLLPKEVLSEVGGPDALEYVPGQDILDIWFDSGTSWSYVLPGPDQRADLYLEGKDQLGGWFQSSLLTSVAARKRAPYKTVIVHGFTLGEKGEKMSKSLGNVIHPDVVVNGGQDQSKEPPYGADVLRWWVADSNVFTEVAIGPSVLNAARDDISKLRNTLRFLLGNVADFNPETDSIPVNDMYVIDQYMLHLLQDLANKITELYKQYDFGKVVRLLRTFYTRELSNFYFSIIKDRLYCEKENDPKRRSCQTALVEILDVIVRSFAPILPHLAEEVFQHIPYIKEPKSVFRTGWISTSSIWKKPGLEEAVESACAMRDSFLGSIPGKNAAEYKVITVIEPGLLFEIIEMLQSEETSSTSQLNELMMASESTLLAQEPREMTADVIELKGKFLINLEGGDIREESSYKVIVMPTTKEKCPRCWKYTAESSDTLCPRCAEVVSGK [IARS2] | -0.0329 | 54.9 °C | 54.9 °C | -0.0958 | -0.383 | -1.42
DNAJC13 | -0.463 | 50.8 °C | 50.3 °C | -0.026 | -0.329 | -1.08
